The results in this text go back to the domain aggregation screens of Martell et al. (2025).

A short description of the data set: soluble fraction after stress (log2 fold change); higher = more stays soluble; pooled small domains, quantitative proteomics. The following applies: stress: pH 4. The essentials:
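With high-throughput quantitative proteomics, pooled custom libraries of small protein domains were measured after pH 4 stress. Each domain's soluble amount after the stress gives a fold change taken as aggregation propensity. Higher log2 values mean more of the domain stayed soluble.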

For the sequence “HMAQQEMEIIPLRHRQVEQVMPTLRPLLEPGAALSGMNNQLILRASRKNREEIKQALAVIDT”, the “soluble fraction (log2)” value stood at 0.121.
As for “HMAQSEDLMVMAQRILGGPEAQSFFQAEATRQGLAGFLPEPIPDFLQRLERKLSGSVGSATAHAMVAQTMG”, the “soluble fraction (log2)” value is -0.279.
Next, “HMAQSLAQKINNYILTNRSSIANVAKSIGYSRTTVSRYLAGKYDSDPTDLENKLAEFLAHETGE”: 0.017.
With “HMAQTEIIRVTKDIKKGDAITADKFEKVKVGAYNLPGNVVKNADELKGKFAAADLVRGDYILTSKLTDNP”, the “soluble fraction (log2)” value came out at 0.0605.
The value for “HMAQVRSTVERRENGTYTVELNLNDDVDNVMRLQLMVATKEMAEDLAQRFQKNPEQVYSQLVTALYG” was -0.719.
Next, “HMAQVSDDAELEKWADTAIDEHPKPVEEYRAGNAASINFLMGQVMKMSRGKANPGAVMQILKQKLD”: 0.22; “HMAQVSDTGAIAKIVADAIAANPKQVQQYLDGNEKVLMYLVGQVMKLSKGKANPPMVIQLLKEQLG”: -0.0882; “HMAQVSDTGELEGVVDGVLAANAKSVADFQAGKENAFQYLIGQVMKETKGKANPEVVATLLRTKLS”: 0.121.
Next, “HMARAGKLAQDMAVWTKETMLNTERNFISLRHFKRELLRRTLAPGESEQTVRAMEEAGYIQVKDGLVFPIK”: -0.511; “HMAREQISVSQMVRDVRDGQVKNIEVLGQELRLSYADGSQKVTRKEEGQQALEILFASDIDLAALDLEVQ”: -1.16.
Turning to “HMARIDYHAMDSDDLSFSEGELLEIYDKPGSFWWKGRSLVSGDEGDIPS”, the “soluble fraction (log2)” value was -1.15.
Consider “HMARKFQKDTGYLNKKERTWLLDFFPSLKKYLYTGAYIRSIIVVESNVTYTDKELPSNYTFTYKFA”, for which the “soluble fraction (log2)” value is 0.176.
Next, “HMARKISVEALGKYFPNSPMLAAAVAVTGVMKKDEFIHEMRASYKHKFAKKPEVIDGNMKALTMTFEA”: -0.122; “HMARNHYETLGVGRTATGDEIRKAYRSEAQKHHPDRGGDAERMQSLNEARDTLLDDQARAAYDQELDL”: -0.0435; “HMARPLLSPREQDVLALIARGFSYSEVARLQAVTVHTIRTHIRNLYAKLSVHSKTEAVFEATRMGLLP”: -0.569.
Next, “HMARRKRDIDSDINVKVFEHWLDNLDSASRESFSAFAEETFSPIQVYLYAKFLGYESSIIAVDHWVAVAYP”: -0.574; “HMARSVAEFVERGRSGGSLERPKLQRMLEYIQDRPVDFVIVHKIDRLARNRADDAAITKTIRGAGAYLVST”: -0.103; “HMARTGSEELVGALATVREPLAPWGQVFVQGALWRARSADGGPVDAGQQVVVRAVEGLTLVVEPRD”: -0.166.
Next, “HMARYSMLEEQLLQLINKHGTMSTPKLVEATGAPRSTVTYQLRKLLESGTIERTQPARSPKQSYRIKS”: 0.0957; “HMASATGVVTAASLNVRSGAGTNYSVVNTLAKGTKVTVLNTADGWYEIEATVNNEKITGYVSATYIAMD”: -0.0486.
As to “HMASLSRRELEVLELLALRLTVKEVAERLVISELTAKRHTSNIYQKLGVNRRRDALAAAQARGLLGAR”, the “soluble fraction (log2)” value is -1.09.
Next, “HMASRSQTEIMHLLSSGLPKHELVTALQSLLGISKPTAYKYLSQDVSIAYDHMVKILEYPPFQRVLYQ”: -0.799; “HMASSVKAPLPGVILDIKVKVGDTIKNGDTVVILEAMKMENNIHSDKDGVVKSIEVNKGDSVLEGATLLTI”: -0.822; “HMASVDDILDRFKQAAKVTTDADLAKVLGLSRQSIAAARLRAKIPASWFPKMSSLFNISTEWLYRG”: 0.011.
The value for “HMASVRPVAPPDPKTHTRLTYRIRRGDTLERIGRRYRVSIAEIQAWNTLRDPGDILAGQRLVIWIPTS” was 0.117; that for “HMATAPQIRAIYALGSKLGINQNSREDNLHQLVYSITGKESIKGLTNYEAARVQSELANMERK” was 0.396; that for “HMATEPLQPRVEVLGSTLATTNGARIVGVYDMSGREVSATQLSKGVYIVKVTNGSVTATQKVFI” was 0.254.
In the case of “HMATETMGMIIRRLRREHGLTQEELAASIGVTAQAVSKWEKDLGMPDISQIVPLAGAFNVRTDVLFGLE”, the “soluble fraction (log2)” value is -0.672.
Next, “HMATEWLSSKEAAQRLGVSAATLYAYVSRGLLRSEGSSGQRERRYRADDVAQLRRRREVGRKAESIAASTL”: 0.142; “HMATHWHITPNPNNGKFLISGLMQDDSFHLMDASGQWLRQLRTVNQELDLDLQPGVYFLKDNSGSVMKFVV”: -1.15; “HMATIADILAEHKDKEGPLLPVLHDVQKMFGHVSEEAMREIAQALNLTRAEVYGVVSFYHDFRKEVE”: -1.19.
On to “HMATIIGSIGIVTQKVGLTGVPGRVYVNNESWAAISANGKEIENDTQVIVVKIDGATLIIEKKG”, for which the “soluble fraction (log2)” value was -0.262.
Next, “HMATKEQIKRIYGLGAGLGIVGKDKDDMLHELIFSITGKDSVKQLDDSEFKAVQAELINRMKLA”: -0.111.
The value for “HMATLAVPNLMRLSQGEAMALIRLSGLSIGNVSIDSSMGSPRVIRQEPQASGGMLVLTQGDQVHLWLEGP” was -2.08; that for “HMATLQLPVPKITLYPGELIRSDHLTDQRFNARALYHSAVYKSREDIVGKVARRTLLPGQPIPVNALR” was 0.194.
As for “HMATPKRGFRKQLAPLVQSGTITREEAGELSRSSGDATALRTKIGELMKAGKLTRKEAGELYSDAFPENA”, the “soluble fraction (log2)” value came to 0.0387.
The value for “HMATPYISMAGIGKSFGPVHALKSVNLTVYPGEIHALLGENGAGKSTLMKVLSGIHEPTKGTITINNIN” was ≥ 0.43; that for “HMATRAEQMAKTHQAILDTARELFLRNGYDATSTRDIANAIGITQPALYHHFKDKEVIFLAVI” was 0.101.
“HMATSLTEQEKLIFGLLKKQSPIELSSLKEQAGLSNKKWDKAIKGLSTQQLAKVTKTENGLFVHLLQ”: the “soluble fraction (log2)” value came out at 0.12.
The value for “HMATTAGIEKYLGSGLIKGIGPIYAKKIVRKFKEDTIRIIDEEPDRLLEVEGIGQKRLEIIKQAWQQQKE” was -0.826; that for “HMATVHVDGIQYDFSSPEQAKEFAYKWAKKHNLTWEVHGETIHIK” was -0.0405; that for “HMATYNEVLKRLIEERKRLGLSQQEMARLVHITQSNYSKVEKGLHRLSYEELKYLSKANVDIFYILT” was 0.0845.
For “HMAVANEAIANINMKEVKQAIHNLPEIFKNPFLLYFDGYKYHEIAEMLDEPLGTIKSRIHFARKLLKSHI”, the “soluble fraction (log2)” value turned out to be 0.22.
Next, “HMAVDVNKATAAELDSIKGIGPAISAKILEEKKKGGNFKDWNDLVTRVSGVGEANAAKFSSEGLTVGGAS”: 0.235.
In the case of “HMAVELPLETTLDIVRKYARNQEVDRRAERVEAVSAEALQTLAPRGTKLASEIVEQAKTQVLEELA”, the “soluble fraction (log2)” value is -0.0679.
In the case of “HMAVKYTKDDFLYTEKPYEAIYDYKNDPFMHNLKIEQMAQQAAEVGVKTFKGLYKNYVKMREMQRGANV”, the “soluble fraction (log2)” value was found to be 0.0966.
Next, “HMAVNSALVQRNWLIGYRIAEEELQGDNRAEYGASIIKKLAKELTAEYGKGYTKTNLYHFYSFYKT”: -0.494; “HMAVNVNGIHLSSQQHEALVSIWRTGRMPEPHAGQKPWLWIQALRRRGLVSGNALRLTDKGRHIVQLLQ”: 0.226.
Next, “HMAVPAALVQAWLELSRRMVAGTQDVGERFAEEARKMHYGETEDRGIRGQATLTEVRDLLDEGIEVLPLLL”: -0.725; “HMAVPLVRGTVTSSVGTVLLLSVGERDFFLSEGEEKDGVLLQSLSEKSAVVVVSGRAYTLSL”: -0.435; “HMAVRLADMAAEKIRKMIIENKFDAGEPLSEMRLAEMFNVSRTPIREAIAILEQEGLLTTVHGKGAFIS”: -0.637.
As to “HMAVSDAAEEYGKAGTPLVILAGKEYGSGSSRDWAAKGPYLQGVRAVLAESYERIHRSNLVGMGIVPLTYK”, the “soluble fraction (log2)” value is 0.109.
Consider “HMAVSDPTAGGIKALMYPNPAQDRLSVALDIPAGLDKQAQMTVTDMMGRVVTQQQVTLNDGFQVFEL”, for which the “soluble fraction (log2)” value stood at 0.209.
The value for “HMAVSSYSVKRYIRNMIQAEDPSAPFSDEALRLALLAHGIAVSRRVVTKYRMAMDIPSSSQRRKR” was -0.12.
For “HMAVSTFGRITASSLNVRSGPSTDHEKVGSLAAGRVVELLEESDGWYRIENGYISTEYVTIVDPSQ”, the “soluble fraction (log2)” value was -1.33.
Consider “HMAVTEVKTTAVVNMRSSDSEKADKLGKAQIGDTFRVLEQRANGWTKLTDGTQEFFIKSEYLEAIA”, for which the “soluble fraction (log2)” value came out at 0.0485.
The value for “HMAVVAPLAGSVARVLVADGDEIEAGQVLLVLEAMKMETEITAPKAGKVGAILVGKGDSVQGGQGLR” was -0.249.
The value for “HMAYLTGFHAIEELIRAGKAKGPLLVANAGPRARTIMSLATDNKIRIDRLGEHELNRLAPGNRGIALYVE” was ≥ 0.43; that for “HMDAAYVYVIGTRVNQRAGPSTSNAVMGVLSEGTRVETLRDEGQWTQIRSNFGTGWMSSSFLSSVAP” was 0.124.
Next, “HMDADRILHKTLKPRELEIYQLIKAYLEEHSQIANAKVQEISGLSEATTRRYLNIFVEFGLLKTS”: -0.164.
Take “HMDADTVGQIRVVKQILDDGRLIVVDASGNPVLVRRSSALSLTAISQGDRIIVDPSVRLAIELLPNE”: the “soluble fraction (log2)” value was determined as 0.148.
Consider “HMDAEELNSKAKDEFTWLEDDESETNLEYRKMVSSEDMAIVAKVAPALAAKLKYQLAHAATNMV”, for which the “soluble fraction (log2)” value is -0.529.
Next, “HMDAEVEHLFRIIAELKEKNVAIIYISHKMDEIFRISDDITVYRDGEYIATDRAENLNVDKVIQLMVGREV”: -0.538; “HMDAEWRTLTLAPEQHQQRLDRALADSLPEFSRSYVQQLIDTGMVRVNGVLAAKSAQRVKALDQVQVELR”: -0.186.
The value for “HMDAGIVVPDTYNKPLAEAVASLEGEGFRTEKKEGYSDTVAKGNVMSQNPEAGTNAERGSTVTIVISQGPQ” was 0.22.
For the sequence “HMDAINYEDFQLLIKQRGSFKVAFEDIMFSTKVAIEKKEDFYDFVTKLIDNGFNNMAYNYLEGFQD”, the “soluble fraction (log2)” value is -2.34.
The value for “HMDAISYTQFMEEAKQGRINKVEVQGRTLMVTPTDGKAYSLTSPGDLWMTTDLMKYGVNVYGAE” was -0.527; that for “HMDALKAVYQWVTRTMMKNQTGVMQTLPNRDLIELNTQITAQRLMQAGVDPTTLKNANQVENAVNIIESR” was -0.193; that for “HMDAMGAVGIARAFISAGERGGDISDGLEHMHGKLLRLSSLMYTRSGKKMAARRHELLSSFVQALEEEIK” was -0.0591.
